Assay results taken from IntAct's records for PubMed 23202584.

B1: Ubiquitin-like protein ATG12 (Homo sapiens), O94817 (parent)
chain: MAEEPQSVLQLPTSIAAGGEGLTDVSPETTTPEPPSSAAVSPGTEEPAGDTKKKIDILLKAVGDTPIMKTKKWAVERTRTIQGLIDFIKKFLKLVASEQLFIYVNQSFAPSPDQEVGTLYECFGSDGKLVLHYCKSQAWG

Variants of: B1
Settings: with atg3_mouse Atg3, Q9CPX6
atg3_mouse Atg3, Q9CPX6, sequence (Q9CPX6 whole entry): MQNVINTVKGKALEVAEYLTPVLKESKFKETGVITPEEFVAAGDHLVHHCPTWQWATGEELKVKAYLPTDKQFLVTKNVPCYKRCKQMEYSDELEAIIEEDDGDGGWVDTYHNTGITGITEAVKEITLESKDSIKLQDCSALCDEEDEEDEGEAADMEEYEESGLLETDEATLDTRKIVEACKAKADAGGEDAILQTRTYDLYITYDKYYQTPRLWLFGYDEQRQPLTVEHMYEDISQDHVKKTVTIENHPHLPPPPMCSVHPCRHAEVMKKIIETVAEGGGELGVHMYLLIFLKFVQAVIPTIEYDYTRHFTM

effect of a mutation on the interaction	Variant
disrupting interaction strength	W73A
disrupting interaction strength	K54D
disrupting interaction strength	K72D
